Assay results taken from the supplement of paper PMC10567573.

B1: CLCN6 (parent)
chain: MAGCRGSLCCCCRWCCCCGERETR
B2: RAB40A (parent)
chain: NWLGRPSKVLSLQDLCCRTIVSCT

Variants of: B1
Assay: protein stability index of a GFP-peptide fusion (GPS, HEK-293T) (PSI 1-6); higher = more stable
Details: c terminus: a fixed tail appended
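Also: lentivirally expressed fusions sorted by FACS into six bins by GFP to DsRed ratio, PSI derived from sequencing read proportions per bin multiplied by bin number.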

Variant	protein stability index
E22K	1.49
E22C	1.89
E22R	1.69
E22T	2.09
E22D	1.92
E22H	1.73
E22Q	1.83
E22P	2.12
E22N	1.48
E22M	1.65
E22L	2.3
E22S	1.65
C10I	1.79
C10T	3.66
C10Q	1.54
C10D	1.24
C10A	1.42
C10P	1.45
C10W	1.69
C10M	1.28
C10N	1.7
C10H	1.69
C10F	1.36

Variant	protein stability index
C10K	2.07
C10Y	1.88
L8F	1.1
L8C	1.54
L8V	2.21
L8E	1.83
L8Q	1.29
L8T	1.42
L8K	1.53
L8D	1.17
L8G	2.1
L8I	1.32
L8R	2.16
L8N	1.42
L8S	1.22
C17K	1.89
C17L	2.55
C17W	2.41
C17S	1.45
C17P	1.8
C17E	1.8
C17A	2.48
C17Q	1.09

Variant	protein stability index
C17I	1.62
C17F	2.29
C17N	1.52
C17T	1.27
C17V	1.41
C17R	2.67
C17D	1.96
C17Y	1.97
C12K	1.89
C12P	1.66
C12I	2.88
C12T	2.59
C12V	1.94
C12S	1.96
C12D	2.35
C12F	3.72
C12R	1.95
C12M	2.19
C12Y	2.23
C12H	1.52
C12N	2.9
C12L	2.86
C12G	3.2

Variant	protein stability index
T23D	2.15
T23C	2.73
T23W	2.78
T23Y	1.79
T23P	1.83
T23M	1.87
T23Q	1.8
T23N	2.15
T23R	1.77
T23G	1.78
T23S	2.36
W14C	1.53
W14R	2.22
W14Y	1.55
W14M	1.14
W14E	2.08
W14Q	2.47
W14P	2.33
W14L	3.15
W14N	2.06
W14G	2.23
W14T	3.2
W14A	1.89

Variant	protein stability index
W14K	2.32
W14F	1.95
W14H	2.06
E20L	2.06
E20N	2.36
E20G	2.24
E20H	1.56
E20F	1.55
E20I	1.55
E20V	1.93
E20K	2.22
E20Q	1.55
E20C	2.16
E20T	1.01
E20R	2.33
E20S	2.25
E20A	1.96
E20Y	1.89
E20W	1.11
E20D	2.27

Variants of: B2
Assay: as above
Details: c terminus: a fixed tail appended

Variant	protein stability index
W2S	2.96
W2R	3
W2I	3.01
W2K	3.11
W2L	2.68
W2M	2.62
W2N	3.23
W2T	3.08
W2V	2.71
W2D	3.7
W2Q	3.14
W2A	3.05
W2E	3.18
W2C	2.71
W2G	3.23
W2P	2.81
W2F	2.64
W2H	3.05
W2Y	2.68
N1S	2.36
N1T	2.16
N1D	2.12
N1M	1.75
N1G	3.03
N1R	2.21
N1H	2.2
N1V	2.15
N1P	2.35

Variant	protein stability index
N1Y	1.83
N1I	1.84
N1L	1.62
N1F	2.16
N1Q	2.29
N1W	2.22
N1C	2.02
N1E	2.6
N1A	2.04
N1K	1.97
L3Q	2.85
L3H	2.3
L3D	2.62
L3N	2.46
L3C	2.39
L3P	2.58
L3V	2.26
L3S	2.64
L3K	3.05
L3G	2.69
L3M	2.2
L3A	2.53
L3R	2.56
L3T	2.95
L3I	2.36
L3E	2.75
L3F	2.28
